In data set [1] the target is Atlas GC ectodomain GPL binding pocket mutant R86A (Ancylostoma ceylanicum).
The target in data set [2] is Atlas GC ectodomain fusion loop mutant F136A/F137A (Ancylostoma ceylanicum).
Data set [3] concerns the molecule itself. Nature of the data set: SEC-MALS; Superdex 200 (10/300), 293 K, 20 mM tris pH 7.8, 0.15 M NaCl, 5% glycerol, 0.5 mM TCEP; 100 ul at 1.6 to 2.5 mg/ml; self-association (trimer). For orientation: SEC sorts molecules by how far they enter the pores of the column.

With “Atlas GC ectodomain GPL binding pocket mutant R86A (domain or fragment)”, the stoichiometry N (as a rule, a count of units in the complex or per binding partner) in data set [1] is 3.

“Atlas GC ectodomain fusion loop mutant F136A/F137A (domain or fragment)” yielded a stoichiometry N in data set [2] of 3.

B1: Atlas GC ectodomain (soluble ectodomain fragment of the phlebovirus GC-like Env of Ancylostoma ceylanicum Atlas virus, polyprotein residues 2330 to 2772) (domain or fragment, UniProt A0A016UZK2 2330-2772, looked up)
chain: CSEVISVTSTEEVCTIQENKETCTFNHATTITLQPLQQQTCLTLNDPEKRPMGMLTVKPDGIKFRCNKKIEFFTRDHQIVSESVHRCHRAGSCHSDECHHVKDTDALPEFSSEANSRPGYTSCSSSCGCITCDGCFFCEPSCLFHRLYAIPTTPTIYSIFYCPSWELEVDAEISLQREDETTTSTIRLLPGRTSTWNNIRFSLIGTIVPQLPILSSAFVTNGRQTSIVKPAYAGQLQSNSVGQLQCPNLEAAKQFECHFSRNLCTCTNALHKVSCTCYDGSVEDHMEALPLPQTSKNFLVFEKDRNIYAKTHVGSALQLHIVAQDLKITTVKHTSHCQVEASDLSGCYSCTSGASLTLSCKSDNGEVLANMKCNEQTHVIRCTESGFINNILLMFDTSEVAADCTAACPGGIVNFTIKGLLAFVNERIISQSYSATDVERNIK
notes: The C-terminal V5 and histidine tags were optionally cleaved with carboxypeptidase A; The atomic model covers residues 2330 to 2769; also called GC trimer; WT
Regarding B1, in data set [3], the “stoichiometry N” value was 3.

Source of the values: PMC9094657, “A bioactive phlebovirus-like envelope protein in a hookworm endogenous virus” (Science Advances, 2022).
